{
  "source": "paper PMC6981184",
  "key": {"soluble CD4": {"biological_target": "soluble CD4 (UniProt P01730)", "assay": "SPR"}, "[1]": {"biological_target": "BG505 N332 SOSIP gp140 envelope trimer (unmutated BG505 SOSIP) (HIV-1 (clade A, BG505))", "assay": "negative-stain electron microscopy"}, "soluble CD4 (sCD4)": {"biological_target": "soluble CD4 (sCD4) (UniProt P01730)", "assay": "SPR"}},
  "data": [
    {"substance": "BG505 N332 SOSIP gp140 envelope trimer (unmutated BG505 SOSIP) (complex)", "values": [
      {"measurement": "Kd", "setting": "soluble CD4", "value": 67.9, "unit": "nM"},
      {"measurement": "stoichiometry N", "setting": "[1]", "value": 3}
    ]},
    {"substance": "BG505 SOSIP.664 (unmutated BG505 N332 SOSIP gp140 trimer) (complex)", "values": [
      {"measurement": "koff", "setting": "soluble CD4 (sCD4)", "value": 0.00061, "unit": "s⁻¹"},
      {"measurement": "kon", "setting": "soluble CD4 (sCD4)", "value": 11200, "unit": "M⁻¹ s⁻¹"}
    ]}
  ]
}
